“Also recorded” adds a separate entry of the source.
Assays:
[1] = tested on: LPS from S. minnesota wild type; LPS from S. minnesota Re mutant; assay: ELISA, binding of CAP37 to LPS; conditions: CAP37 at 120 ng/well; LPS 0 to 50 μg/ml
Experimental: The LPS from S. minnesota wild type, S. minnesota Re mutant, Lipid A from S. minnesota R595, and Lipid A from S. typhimurium Re mutant were applied to microtiter wells at concentrations ranging from 0 to 50 μg/ml and incubated overnight. The trays were then incubated with CAP37 at 120 ng/well for 1 hour at 37° C. The next incubation was with a rabbit antiserum against CAP37 (1:400 dilution) and the color development was as previously described (Pereira et al., 1989) and the absorbance was read at 492 nm.

monocytes/macrophages = assay: In vivo chemotactic assay, intraperitoneal injection, peritoneal exudate cells; set-up: species or system BALB/c mice; conditions: for % PMN / % monocytes: i.p., mice, peritoneal exudate
Experimental: Female BALB/c mice (6-8 weeks) (Jackson Laboratory, Bar Harbor, […].) were injected intraperitoneally (i.p.) with 100 ng CAP37 (purified according to the method of the invention) per mouse in 2 ml RPMI-1640 serum-free medium (Mediatech). A control group of mice were injected i.p. with 2 ml brewers thioglycollate (4% w/v) (Difco Laboratories), a known stimulator of inflammatory cells whose action is well documented. A second control group of mice were injected j.p. with 2 ml of RPMI-1640 alone.
At 6, 24, 48 and 72 hours following these i.p. injections, four mice in each group were sacrificed by CO2 anesthesia. Ten ml sterile medium was injected into the peritoneal cavity of each mouse and the abdominal area gently massaged to dislodge the exudate cells. The medium containing the exudate cells was then aspirated from the peritoneal cavity using a 19 gauge needle attached to a syringe. The total number of cells in the peritoneal exudate was determined by counting the cells on a COULTER COUNTER (Coulter Electronics, Hialeah, Fla.: The operation of the COULTER COUNTER is based on electrical conductivity difference between particles and common diluent. Particles act as insulators, diluents as good conductors. The particles, suspended in an electrolyte, are forced through a small aperture through which an electrical current path has been established. As each particle displaces electrolyte in the aperture, a pulse essentially proportional to the particle volume is produced. Thus a 3-dimensional particle volume response is the basis for all sizing, regardless of position or orientation of the particle in solution.) One hundred μl of the peritoneal exudate was cytocentrifuged onto a glass slide and the cells stained with Wright's stain. A differential count of the cells was made by counting the number of monocytes, lymphocytes, neutrophils, basophils and eosinoplils per hundred consecutive cells. These experiments were performed to determine the time course of migration of neutrophils, monocytes, lymphocytes and other cells into the peritoneal cavity, in response to an i.p. injection of CAP37.

wild type LPS = assay: Neutralization of LPS activity, limulus amebocyte lysate (LAL) assay, wild type LPS; format: biochemical
Experimental: Further, the neutralization of LPS activity, as assayed by the limulus amebocyte lysate (LAL) assay, by CAP37 was measured. CAP37 was diluted to the desired concentrations (from 6.2 ng/ml to 500 ng/ml) in geys buffered saline pH 7 (GIBCO). To this wild type LPS (RIBI IMMUNOCHEM) or Re LPS from Salmonella (David Morrison, Kansas Medical Center) was added so that the final concentrations were 0.1, 0.5, 1.0 and 2.0 ng/ml LPS. The tubes were incubated at 37° C. for between 30 to 60 minutes and then assayed in the chromogenic LAL assay, using polymyxin E as a control.
As discussed in Example 11, peptides can be screened for lipopolysaccharide neutralizing capacity using the LAL assay also. The CAP37 peptide was diluted to the desired concentrations (from 125 ng/ml to 4000 ng/ml) in geys buffered saline pH 7 (GIBCO). To this is added the wild type LPS (RIBI IMMUNOCHEM) or Re LPS from Salmonella (David Morrison, Kansas Medical Center) so that the final concentration is 0.1, 0.5, and 1.0 ng/ml LPS. The tubes were incubated at 37° C. for between 30 to 60 minutes and then assayed in the chromogenic LAL assay.

human monocytes = assay: Monocyte chemotaxis, modified Boyden chamber technique; format: cell-based; conditions: for Distance migrated in μm: chemoattractant conc. 10^-9 M
Experimental: Chemotaxis was measured using the modified Boyden chamber technique (Snyderman et al.). The leading front method (Zigmond et al.) was used to assess migration of monocytes and lymphocytes through a 8 μm filter (Millipore Corporation, Bedford, Mass.). PMN chemotaxis was measured using a 3 μm filter (Millipore). The purified CAP37 protein (Example 1) used in chemotaxis assays were endotoxin-free as determined by the Limulus Amoebocyte Lysate Assay (Whittaker Bioproducts, Inc., Walkersville, Md.). The dilutions of CAP37 and N-formyl-methionyl-leucyl-phenylalanine (FMLP) were made in Geys buffer (Gibco) containing 2% endotoxin-free bovine serum albumin (BSA). Geys buffer containing 2% BSA served as the negative control, and a […] solution of FMLP as the positive control.
The chambers were incubated in a humidified atmosphere (6.2% CO2) for 2 hours when testing monocytes and lymphocytes, and for 30 minutes when testing PMNs. The filters were then removed and processed as previously described (Snyderman et al.). The cells were viewed using oil immersion and the distance the cells had migrated into the filter was determined over five different fields on the same slide (Zigmond et al.). Triplicate assays were performed for each experimental point.
The three peptides were tested for chemotactic activity towards monocytes using the modified Boyden Chamber technique described in Example 2. The monocyte chemotactic activity of each peptide fragment at concentrations ranging from 10^-7 to 10^-13 M was compared with Geys buffer (negative control), FMLP 10^-8 M (positive control) and purified CAP37 10^-9 M (positive control). […] The effect of peptide 1 on monocyte chemotaxis is illustrated in Table 2 while the effect of peptide 3 on monocyte chemotaxis is illustrated in Table 3.

B1: CAP37: granule-associated cationic protein (mol. wt. 37,000 daltons) from human PMN, 222 amino acid mature protein (protein)
chain: IVGGRKARPRQFPFLASIQNQGRHFCGGALIHARFVMTAASCFQSQNPGVSTVVLGAYDLRRRERQSRQTFSISSMSENGYDPQQNLNDLMLLQLDREANLTSSVTILPLPLQNATVEAGTRCQVAGWGSQRSGGRLSRFPRFVNVTVTPEDQCRPNNVCTGVLTRRGGICNGDGGTPLVCEGLAHGVASFSLGPCGRGPDFFTRVALFRDWIDGVLNNPGP
binding to LPS (ELISA) [1]: capable of binding Re LPS | migration of cells into the peritoneal cavity (in words) (monocytes/macrophages; 100 ng CAP37 per mouse i.p.): moderately increased the overall numbers of cells; also recorded: potent monocyte chemoattractant capacity | time at which monocytes appeared in the peritoneal cavity (monocytes/macrophages; 100 ng CAP37 per mouse i.p.): 24 h | % PMN (monocytes/macrophages; 6 hours post injection): 65% | % monocytes (monocytes/macrophages; 6 hours post injection): 7% | % PMN (monocytes/macrophages; 24 hours post injection): dramatic reduction in neutrophils | % monocytes (monocytes/macrophages; 24 hours post injection): 27% | % PMN (monocytes/macrophages; 24 hours post injection, listed as CAP 37): 26% | % PMN (monocytes/macrophages; 48 hours post injection): 4% | % monocytes (monocytes/macrophages; 48 hours post injection): 48% | % PMN (monocytes/macrophages; 72 hours post injection): 3% | % monocytes (monocytes/macrophages; 72 hours post injection): 55% | neutralization of wild type LPS activity (LAL assay) (wild type LPS): significantly neutralized LPS activity | Distance migrated in μm (human monocytes; Table 2): 78.4 μm | Distance migrated in μm (human monocytes; Table 3): 73.6 μm | monocyte chemotactic activity (in words) (human monocytes; modified Boyden chamber): as effective as FMLP; also recorded: strong chemotactic properties

— patent US5458874A, “Method of increasing monocyte chemotaxis with CAP37 and monocyte chemotactic portions thereof” (Emory University, priority 1992, dated 1995)
